Measurements as given in publication PMC9709291 (Frontiers in Immunology, 2022).

Target: TcdA^1073-1464 (fragment of the delivery and receptor-binding domain of TcdA, residues 1073-1464) (Clostridioides difficile VPI10463, UniProt P16154)
Assay: pull-down
Details: both partners purified

TcdA^1073-1464 (fragment of the delivery and receptor-binding domain of TcdA, residues 1073-1464), sequence (P16154 1073-1464): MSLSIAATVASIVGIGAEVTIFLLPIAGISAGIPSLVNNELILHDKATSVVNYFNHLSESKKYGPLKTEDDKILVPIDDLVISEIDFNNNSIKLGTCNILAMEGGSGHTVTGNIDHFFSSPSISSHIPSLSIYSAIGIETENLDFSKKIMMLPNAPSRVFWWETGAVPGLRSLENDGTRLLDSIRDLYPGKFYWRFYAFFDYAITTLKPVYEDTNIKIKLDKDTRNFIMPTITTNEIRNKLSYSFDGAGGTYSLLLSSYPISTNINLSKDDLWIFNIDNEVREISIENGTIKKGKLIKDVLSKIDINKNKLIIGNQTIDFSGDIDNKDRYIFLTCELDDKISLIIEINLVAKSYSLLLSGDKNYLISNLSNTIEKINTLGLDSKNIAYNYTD

B1: VHH AA6 (VHH)
VHH: QVQLVESGGGLVQPGGSLRLSCAASGFTFSDYVMTWVRQAPGKGPEWIATINTDGSTMRDDSTKGRFTISRDNAKNTLYLQMTSLKPEDTALYYCARGRVISASAIRGAVRGPGTQVTVSS
  binding result: binds
